# In US20190327974A1, “SYNERGISTS FOR IMPROVED PESTICIDES” (priority 2017, published 2019):
# Key:
# [1] = test system: CCCC(=O)Oc1ccc([N+](=O)[O-])cc1; test: Inhibition of Gly137Asp LcαE7, 4-nitrophenol butyrate hydrolysis; assay type: biochemical, Lucilia cuprina; settings: other: Gly137Asp αE7, room temperature; pH 7.5
# From the text: (§1) The term “carboxyethylesterase” (CBE), refers to insect carboxylesterases from the alpha and beta and non-microsomal gene clusters, as defined in Oakeshott, Claudianos, Campbell, Newcomb and Russell, “Biochemical Genetic and Genomics of Insect Esterases”, pp 309-381, Chapter 10, Volume 5, 2005, Eds. Gilbert, Iatrou, Gill, published—Elsevier which is incorporated herein by reference. The αE7 CBE is an example of an alpha esterase, and is found in the sheep blowfly, Lucilia cuprina, with homologous genes being present in other insect pests. […]
# (§2) His6-tagged proteins were expressed in BL21(DE3) E. coli (Invitrogen) at 26° C. for 18 hours. […] Protein concentration was determined by measuring the absorbance at 280 nm with an extinction coefficient calculated using the Protparam online server (Gasteiger, E. et al. Protein identification and analysis tools on the ExPASy server. Proteomics Protoc. Handb. 571-607 (2005). doi:10.1385/1-59259-890-0:571).
# (§3) Inhibition of wild-type αE7 and the Gly137Asp αE7 variant was determined by a competition assay between the native-substrate analogue 4-nitrophenol butyrate (Sigma) and the boronic acid compounds. Initially, the Michalis constant (KM) with 4-nitrophenol butyrate was measured for both enzymes to determine an appropriate concentration of substrate for use in the competition assays. […]
# [2] = test system: other serine hydrolases (e.g. α-lytic protease); settings: cited from earlier work
# [3] = test system: CCCC(=O)Oc1ccc([N+](=O)[O-])cc1; test: Inhibition of wild-type LcαE7, 4-nitrophenol butyrate hydrolysis; assay type: biochemical, Lucilia cuprina; settings: other: wildtype αE7, room temperature; pH 7.5
# From the text: as §1, §2, §3
compound,measurement,setting,value
Lucilia cuprina αE7 carboxylesterase (LcαE7) variant Gly137Asp (Lucilia cuprina; G137D),Km,[1],250 µM
"OB(O)c1ccccc1 [PBA, phenylboronic acid]",inhibition of other serine hydrolases,[2],micromolar to millimolar inhibition
"Lucilia cuprina αE7 carboxylesterase (LcαE7), wild type, GenBank AAB67728.1 (Lucilia cuprina)",Km,[3],15 µM
